The target of data set [1] is T1, TR4 orphan receptor (NR2C2) (Homo sapiens) (UniProt P49116).
T1 sequence: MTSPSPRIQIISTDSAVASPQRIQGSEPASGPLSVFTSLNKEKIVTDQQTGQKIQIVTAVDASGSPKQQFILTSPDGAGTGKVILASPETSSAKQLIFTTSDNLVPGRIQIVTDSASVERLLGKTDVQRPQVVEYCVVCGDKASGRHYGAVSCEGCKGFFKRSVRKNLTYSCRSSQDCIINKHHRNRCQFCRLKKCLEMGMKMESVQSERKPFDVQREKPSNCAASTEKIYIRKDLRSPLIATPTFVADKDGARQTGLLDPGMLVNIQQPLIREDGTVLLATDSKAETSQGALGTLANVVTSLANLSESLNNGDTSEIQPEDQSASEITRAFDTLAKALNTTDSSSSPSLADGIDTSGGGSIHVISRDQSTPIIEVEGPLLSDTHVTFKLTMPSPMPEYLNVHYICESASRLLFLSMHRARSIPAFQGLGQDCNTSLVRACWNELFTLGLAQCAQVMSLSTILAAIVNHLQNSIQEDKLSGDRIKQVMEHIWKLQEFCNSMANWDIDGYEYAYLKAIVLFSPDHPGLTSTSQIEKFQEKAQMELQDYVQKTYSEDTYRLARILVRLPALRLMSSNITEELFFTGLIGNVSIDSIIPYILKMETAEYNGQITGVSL
The experiment in a line: competition. To be noted: competitive EMSA. A general note: In EMSA bound probe runs differently from free probe, usually more slowly.

In data set [2] the target is T2, TR2 orphan receptor (TR2-11, NR2C1) (Homo sapiens, UniProt P13056 SEQ:1-603).
T2 chain: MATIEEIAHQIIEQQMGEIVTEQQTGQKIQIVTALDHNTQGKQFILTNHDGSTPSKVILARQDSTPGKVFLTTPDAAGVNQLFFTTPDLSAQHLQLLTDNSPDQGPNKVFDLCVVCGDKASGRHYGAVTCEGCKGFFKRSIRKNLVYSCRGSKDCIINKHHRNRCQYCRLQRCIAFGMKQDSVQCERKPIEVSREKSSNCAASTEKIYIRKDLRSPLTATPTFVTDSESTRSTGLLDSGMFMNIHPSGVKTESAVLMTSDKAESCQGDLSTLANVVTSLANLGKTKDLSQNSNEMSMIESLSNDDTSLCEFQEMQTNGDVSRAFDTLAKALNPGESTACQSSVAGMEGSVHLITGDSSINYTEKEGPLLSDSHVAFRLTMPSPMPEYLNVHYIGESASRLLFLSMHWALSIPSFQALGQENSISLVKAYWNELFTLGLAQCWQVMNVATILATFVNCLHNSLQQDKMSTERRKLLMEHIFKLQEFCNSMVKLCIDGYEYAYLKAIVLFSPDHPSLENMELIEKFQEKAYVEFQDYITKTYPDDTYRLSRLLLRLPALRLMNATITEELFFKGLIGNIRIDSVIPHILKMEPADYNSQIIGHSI
The experiment in a line: EMSA; competed by excess unlabeled oligo; supershift with anti-TR2 G204. To be noted: tags: none stated, pSG5-hTR2-11, TNT rabbit reticulocyte lysate; label: 32P. As to the method:
EMSA analysis was performed as described previously (Lee, H. J., and Chang, C. (1995) J. Biol. Chem. 270, 5434-5440). […] For competition reactions, unlabeled HPV-16 DR4RE oligonucleotides were mixed with labeled probe prior to its addition to the reaction. Antibody shift analysis involved the addition of 1 μl of the monoclonal anti-TR2 orphan receptor antibody, G204, to the reaction for 15 min., at room temperature, prior to gel loading.
The site consists of two consensus A(G/T)(G/T)TCA half sites with a spacing of 4 nucleotides (ATGTCAccctAGTTCA). To determine whether TR2 was able to bind the HPV-16 DR4RE, gel shift analysis was performed. […] Also in FIG. 3A, a mock in vitro transcription/translation reaction was used in lane 3, and lane 4 contains ³²P-labeled HPV-16 DR4RE alone. To further confirm the binding specificity of TR2 for the HPV-16 DR4RE, a TR2-specific monoclonal antibody was added, resulting in an upward shift of the labeled complex (FIG. 3B).

The target in data set [3] is T2, TR2 orphan receptor (TR2-11, NR2C1). The experiment in a line: EMSA; Scatchard; 25 mM Tris pH 8.0, 50 mM KCl, poly(dI.dC). The conditions noted are these: tags: none stated, pSG5-hTR2-11, TNT rabbit reticulocyte lysate; label: 32P. As to the method:
Electrophoretic mobility shift assay analysis was performed as previously described (Jiang, C. K. et al. (1991) J Invest Dermatol 97, 969-973). The oligonucleotides were 5′ end labeled with γ-³²P ATP (specific activity=6000 Ci/mmole) (New England Nuclear) by T4 polynucleotide kinase. The specific activity reached 2-8×10⁸ cpm/μg. Labeled oligonucleotides (0.1 ng) were incubated with in vitro translated proteins, in the presence or absence of unlabeled oligonucleotide competitor or rabbit antiserum against TR2 (Cooney, A. J. et al. (1993) J Biol Chem 268, 4152-4160), for 15 min at room temperature. The binding buffer contained 25 mM Tris-HCl (pH 8.0), 10% glycerol, 50 mM KCl, 2 mM EDTA, 0.05% TritonX-100, 5 mM DTT, 1% β-mercaptoethanol, 5 ng/ml bovine serum albumin, 1.5 units/ml aprotinin, and 1 μg poly(dI.dC) (Pharmacia). […] The radioactive gels were analyzed by PhosphorImager (Molecular Dynamics). […]
To clarify the potential mechanism for the differential regulation of PPARα signal pathway by TR2 and TR4, the Kds (equilibrium dissociation constants) for TR2 and TR4 binding to PPRE were calculated using Scatchard analysis. […] The Kd values calculated here were consistent with the range of Kd values for nuclear receptors and their hormone response elements.

CRBPII (DR1): the IC50 in data set [1] (best of natural elements) is 0.023 ng. Regarding DR4 synthetic, the IC50 in data set [1] (range end assigned by order, weakest synthetic DR) came out at 0.24 ng. DR6 synthetic came in with an IC50 in data set [1] (range end assigned by order DR6>DR5>DR1>DR3>DR2>DR4) of 0.08 ng. Consider ERE (palindrome), for which, in data set [1] (weakest natural element, bound poorly, range end assigned by order), the IC50 was 85 ng.

B1: HPV-16 DR4RE (dsDNA)
DNA 1: ATGTCACCCTAGTTCA
DNA 2: TGAACTAGGGTGACAT
With B1, in data set [2], the binding result was “binds”.

B2: PPRE (rat acyl-CoA oxidase) (dsDNA)
DNA 1: GTCGACAGGGGACCAGGACAAAGGTCACGTTCGGGAGTCGAC
DNA 2: GTCGACTCCCGAACGTGACCTTTGTCCTGGTCCCCTGTCGAC
As to B2, in data set [3], the Kd (usually the equilibrium constant for the complex coming apart) was determined as 1.23 nM.

Source of the values: patent publication US20060063727, “Tr4/tr2 response elements” (published 2006).
